Measured values as given in US20140186327.

Columns and labels:
[1] = biological target: T1, soluble tissue factor (sTF), P13726
T1 chain: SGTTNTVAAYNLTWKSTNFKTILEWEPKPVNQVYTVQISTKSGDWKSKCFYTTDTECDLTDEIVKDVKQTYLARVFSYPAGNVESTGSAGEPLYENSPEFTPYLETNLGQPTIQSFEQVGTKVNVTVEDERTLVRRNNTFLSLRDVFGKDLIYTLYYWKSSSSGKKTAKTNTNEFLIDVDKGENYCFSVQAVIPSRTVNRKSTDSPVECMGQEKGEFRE

Molecule: FXI protease
- Concentration by Activity (ng/ml), aPTT based factor assay (FIX-KLTRAET-XTEN_AE864): 7 ng/mL
- Fraction Active (activity / ELISA) (FIX-KLTRAET-XTEN_AE864): 30%
- fold enhancement of clotting activity against FIX-XTEN (aPTT based factor assay) (FIX-KLTRAET-XTEN_AE864): In all three cases the presence of a FXI cleavage site enhanced the clotting activity by greater than 30-fold
- Concentration by Activity (ng/ml), aPTT based factor assay (FIX-/FXI/-XTEN_AE864): 11 ng/mL
- Fraction Active (activity / ELISA) (FIX-/FXI/-XTEN_AE864): 40%
- fold enhancement of clotting activity against FIX-XTEN (aPTT based factor assay) (FIX-/FXI/-XTEN_AE864): In all three cases the presence of a FXI cleavage site enhanced the clotting activity by greater than 30-fold
- Concentration by Activity (ng/ml), aPTT based factor assay (FIX-DFTRVVG-XTEN_AE864): 9 ng/mL
- Fraction Active (activity / ELISA) (FIX-DFTRVVG-XTEN_AE864): 34%
- fold enhancement of clotting activity against FIX-XTEN (aPTT based factor assay) (FIX-DFTRVVG-XTEN_AE864): In all three cases the presence of a FXI cleavage site enhanced the clotting activity by greater than 30-fold

Molecule: FXa from Novagen
- conversion of FVII-XTEN to FVIIa-XTEN (reducing SDS-PAGE) (FVII-XTEN_AE288): Reducing SDS-PAGE indicated a complete conversion of FVII-XTEN proteins to FVIIa-XTEN proteins
- conversion of FVII-XTEN to FVIIa-XTEN (reducing SDS-PAGE) (FVII-XTEN_AE864): Reducing SDS-PAGE indicated a complete conversion of FVII-XTEN proteins to FVIIa-XTEN proteins

B1: FVIIa-AE288 (protein)
chain: AVFVTQEEAHGVLHRRRRANAFLEELRPGSLERECKEEQCSFEEAREIFKDAERTKLFWISYSDGDQCASSPCQNGGSCKDQLQSYICFCLPAFEGRNCETHKDDQLICVNENGGCEQYCSDHTGTKRSCRCHEGYSLLADGVSCTPTVEYPCGKIPILEKRNASKPQGRIVGGKVCPKGECPWQVLLLVNGAQLCGGTLINTIWVVSAAHCFDKIKNWRNLIAVLGEHDLSEHDGDEQSRRVAQVIIPSTYVPGTTNHDIALLRLHQPVVLTDHVVPLCLPERTFSERTLAFVRFSLVSGWGQLLDRGATALELMVLNVPRLMTQDCLQQSRKVGDSPNITEYMFCAGYSDGSKDSCKGDSGGPHATHYRGTWYLTGIVSWGQGCATVGHFGVYTRVSQYIEWLQKLMRSEPRPGVLLRAPFPGSPGTSESATPESGPGSEPATSGSETPGTSESATPESGPGSEPATSGSETPGTSESATPESGPGTSTEPSEGSAPGSPAGSPTSTEEGTSESATPESGPGSEPATSGSETPGTSESATPESGPGSPAGSPTSTEEGSPAGSPTSTEEGTSTEPSEGSAPGTSESATPESGPGTSESATPESGPGTSESATPESGPGSEPATSGSETPGSEPATSGSETPGSPAGSPTSTEEGTSTEPSEGSAPGTSTEPSEGSAPGSEPATSGSETPGTSESATPESGPGTSTEPSEGSAPGSSS
- soluble tissue factor (sTF) induced clotting (Stago STA-Clot FVIIa activity assay) [1]: an activity equivalent to 112 U/ml of FVIIa activity
